Molecular target: T1, penta-his-tagged hRANKL (human)
T1 sequence: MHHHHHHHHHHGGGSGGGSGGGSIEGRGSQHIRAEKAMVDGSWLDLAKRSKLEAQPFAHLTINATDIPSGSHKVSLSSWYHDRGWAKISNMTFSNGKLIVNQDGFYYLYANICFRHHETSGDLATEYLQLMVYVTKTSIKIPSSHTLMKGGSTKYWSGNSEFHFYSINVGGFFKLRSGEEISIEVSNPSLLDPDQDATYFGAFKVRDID
Assay: competition ELISA: 150 pM his-hRANKL pre-mixed with antibody, free RANKL detected on hRANK-hFc plate

Chain of Control: Human anti-hRANKL mAb, SEQ ID NO: 2 and 4 of U.S. Pat. No. 7,364,736 (antibody) (VH): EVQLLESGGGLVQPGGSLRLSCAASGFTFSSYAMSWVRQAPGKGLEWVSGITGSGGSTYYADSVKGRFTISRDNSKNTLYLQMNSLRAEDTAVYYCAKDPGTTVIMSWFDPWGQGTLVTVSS
Chain of Control: Human anti-hRANKL mAb, SEQ ID NO: 2 and 4 of U.S. Pat. No. 7,364,736 (antibody) (VL): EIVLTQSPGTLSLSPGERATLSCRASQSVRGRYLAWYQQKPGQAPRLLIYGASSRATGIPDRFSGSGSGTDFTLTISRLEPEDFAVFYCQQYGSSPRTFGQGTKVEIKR

Control: Human anti-hRANKL mAb, SEQ ID NO: 2 and 4 of U.S. Pat. No. 7,364,736 (antibody)
IC50: 95 pM

Source: patent US20120114665A1
